In US20240002491A1, “METHODS FOR SELECTING PATIENTS FOR TREATMENT WITH AN NGF ANTAGONIST” (Regeneron Pharmaceuticals, Inc., priority 2022, published 2024):

Tests used:
[1] = test system: adults with moderate-to-severe chronic pain associated with osteoarthritis (OA) of the knee or hip; test: FACT OA2 (NCT03304379, R475-OA-1688) Phase 3 trial, WOMAC pain and physical function; type: in vivo, human
From the text: (§1) NCT02683239 (R475-PN-1523, or “FACT LTS”), NCT03161093 (R475-OA-1611, or “FACT OA1”), and NCT03304379 (R475-OA-1688, or “FACT OA2”) each were Phase 3 trials evaluating fasinumab in adults with moderate-to-severe chronic pain associated with osteoarthritis (OA) of the knee or hip. All three of these trials enrolled patients with OA of the knee or hip who had inadequate pain relief with acetaminophen and were intolerant to or had inadequate pain relief with opioids, or were unwilling or unable to take opioids. Complete inclusion and exclusion criteria for the trials are described at clinicaltrials.gov/ct2/show/NCT03161093, clinicaltrials.gov/ct2/show/NCT03304379, and clinicaltrials.gov/ct2/show/NCT02683239.
FACT OA1 and FACT OA2 assessed the efficacy of fasinumab in comparison to nonsteroidal anti-inflammatory drugs (NSAIDs; naproxen, diclofenac, or celecoxib) for treatment of OA. FACT OA1 includes results from a total of 1,801 patients randomized to one of four treatment arms: fasinumab 1 mg SC once every 8 weeks (Q8W) (n=304), fasinumab 1 mg SC once every 4 weeks (Q4W) (n=639), naproxen 500 mg twice daily (n=644), or placebo (n=214). In FACT OA2, patients were randomized into one of six treatment groups: fasinumab 1 mg SC once every 4 weeks (Q4W), fasinumab 3 mg SC once every 4 weeks (Q4W), fasinumab 6 mg SC once every 8 weeks (Q8W), celecoxib 200 mg once daily, diclofenac 75 mg twice daily, or placebo. While the FACT OA2 trial was still ongoing, enrollment into the fasinumab 3 mg Q4W and 6 mg Q8W groups was stopped for safety considerations; patients enrolled in those dose regimens discontinued study drug and entered the post-treatment follow-up period.
Fasinumab patients in both trials also reported improvements in their pain and physical function (WOMAC score) compared to those treated with the highest-approved prescription doses of NSAIDS.

[2] = test system: adults with moderate-to-severe chronic pain associated with osteoarthritis (OA) of the knee or hip; test: FACT LTS (NCT02683239, R475-PN-1523) efficacy substudy; type: in vivo, human; settings: fasinumab 1 mg Q8W and 1 mg Q4W groups
From the text: as §1
(§2) The FACT LTS study evaluated the long-term safety and tolerability of fasinumab, including adverse events of special interest such as joint damage (e.g. arthropathies), compared with placebo. A total of 2,411 patients were randomized to one of the following treatment arms: (1) fasinumab 1 mg subcutaneous (SC) every 8 weeks (Q8W); (2) fasinumab 1 mg SC every 4 weeks (Q4W); or (3) matching placebo SC Q4W. This study also included a substudy evaluating the efficacy of fasinumab in these same patient groups (n=215 in fasinumab 1 mg Q8W, n=217 in fasinumab 1 mg Q4W, n=214 in placebo).

[3] = test system: adults with moderate-to-severe chronic pain associated with osteoarthritis (OA) of the knee or hip; test: Adjudicated arthropathies across the three fasinumab Phase 3 trials; type: in vivo, human; settings: across all three Phase 3 trials
From the text: as §1, §2

[4] = test system: patients with OA of the knee and/or hip; test: Integrated summary of safety (ISS): JR, AA, DA by number of large joints with OA at baseline; type: in vivo, human
Protocol: To improve risk-benefit for patients, analyses were conducted to identify populations of patients that might be at greater risk for joint-related adverse events. An integrated summary of safety (ISS) analysis was performed using pooled data from the clinical studies R475-PN-1612 (NCT03285646), R475-PN-1227 (NCT02447276), R475-PN-1523 (NCT02683239), R475-OA-1611 (NCT03161093), R475-OA-1688 (NCT03304379), R475-OA-1758 (NCT03691974), and MT-5547-J01 (NCT03245008).
As used in this Example, the term “adjudicated arthropathy” or “AA” is an umbrella term that encompasses the following conditions: rapidly progressive OA type 1 or 2, subchondral insufficiency fractures, and primary osteonecrosis. The term “destructive arthropathy” or “DA” refers to abnormal bone fragmentation, destruction, or fracture over a short period of time, which are observed by X-ray radiography and which are features inconsistent with radiographic findings typically observed in conventional advanced OA. The term “joint replacement” or “JR” refers to joint replacement surgery.
To examine different phenotypes of OA (generalized OA in particular) a subgroup analysis based on the number of large joints (knees, hips, shoulders) with OA at baseline was performed. OA joints were defined as any hip or knee with baseline KL 2 score or above and any shoulder with a score of mild, moderate or severe. Thus, the minimum number of joints with OA was 1 and the maximum number could be 6. Three subgroups were arbitrarily designated 1-2, 3-4, and 5-6 large joints with OA at baseline.
The analyses are based on large numbers of patients: 2103 patients in the placebo group, 1676 patients in the fasinumab 1 mg Q8W group (also referred to herein as “1Q8”), and 3009 patients in the 1 mg Q4W group (also referred to herein as “1Q4”). The percentage of the population in each subgroup was similar across treatment arms; the 1-2 joint subgroup ranged from 55.8 to 59.5% of the entire population, the range for the 3-4 joint subgroup was 33.6 to 37.4%, and the range for in the 5-6 joint subgroup was 6.7 to 7.1%.

alkaline phosphatase = settings: cited from earlier work
[5] = test system: patients with OA of the knee and/or hip; test: ISS rates of DA and AA above and below cut-offs for change in alkaline phosphatase at 16 weeks
From the text: To explore this possibility, three different cut-offs at 16 weeks were chosen (10, 15 and 20 U/L change from baseline) and the rate of DA above and below each cut-off was examined (FIG. 6). Of note, the standard deviation for change in alkaline phosphatase in the placebo arm is 12.9 at 8 weeks and 12.7 at 16 weeks.

[6] = FACT OA2, Week 24, fasinumab 1 mg Q4W, diclofenac 2 × 75 mg/day or celecoxib 200 mg/d
[7] = FACT OA2, Week 24, fasinumab 1 mg Q4W, nominal p < 0.0001
[8] = 1 mg Q4W (1Q4), 1-2 joint subgroup
[9] = 1 mg Q4W (1Q4), 5-6 joint subgroup
[10] = 1 mg Q8W (1Q8), 1-2 joint subgroup
[11] = 1 mg Q8W (1Q8), 5-6 joint subgroup

## Fasinumab: fully-human high-affinity monoclonal antibody directed against NGF; HCVR/LCVR SEQ ID NOs: 2/10
[1]; [6]
  WOMAC pain, change from baseline: −42%
  WOMAC pain, change from baseline (score, in brackets): (−2.79)
  WOMAC physical function, change from baseline: −39%
  WOMAC physical function, change from baseline (score, in brackets): (−2.63)
[1]; [7]
  WOMAC pain, difference vs. placebo: −0.79
  WOMAC physical function, difference vs. placebo: −0.82
[1]; FACT OA2, Week 24, fasinumab 1 mg/month, nominal p = 0.0152
  WOMAC physical function, difference vs. diclofenac/celecoxib: −0.36
[1]; FACT OA2, Week 24, fasinumab 1 mg/month, nominal p = 0.0503
  WOMAC pain, difference vs. diclofenac/celecoxib: −0.30
[1]; FACT OA2, fasinumab 1 mg Q4W, p<0.01 for all endpoints
  co-primary endpoints: pain and physical function compared to placebo: significantly reduced pain and improved physical function compared to placebo
[2]
  co-primary endpoints: pain and physical function (WOMAC score) compared to placebo: significantly reduced pain and improved physical function (WOMAC score) compared to placebo
[3]
  rates of adjudicated arthropathies compared with placebo or NSAIDs: higher rates of arthropathies were adjudicated in patients treated with fasinumab compared with placebo or NSAIDs, which were dose-dependent
[4]; 1 mg Q4W
  median time for detection of DA: 343.5 days
[4]; 1 mg Q4W (1Q4)
  difference in all AA from placebo: 5.7%
[4]; [8]
  JR rate, difference from placebo: 1.3%
  RPOA-1 rate: 5.8%
  RPOA-1 rate, difference versus placebo: 4.1%
  percentage of patients who developed adjudicated arthropathy (AA): 7.7%
  percentage of patients who underwent joint replacement (JR): 6.4%
  percentage of patients with destructive arthropathy (DA): 0.3%
[4]; [9]
  percentage of patients who developed adjudicated arthropathy (AA): 12.2%
  percentage of patients who underwent joint replacement (JR): 14.6%
  percentage of patients with destructive arthropathy (DA): 1.5%
[4]; 1 mg Q8W
  median time for detection of DA: 284 days
[4]; 1 mg Q8W (1Q8)
  difference in all AA from placebo: 3.7%
[4]; [10]
  JR rate, difference from placebo: 0.8%
  RPOA-1 rate: 4.8%
  RPOA-1 rate, difference versus placebo: 3.1%
  percentage of patients who developed adjudicated arthropathy (AA): 5.7%
  percentage of patients who underwent joint replacement (JR): 5.9%
  percentage of patients with destructive arthropathy (DA): 0.2%
[4]; [11]
  percentage of patients who developed adjudicated arthropathy (AA): 10.7%
  percentage of patients who underwent joint replacement (JR): 12.5%
  percentage of patients with destructive arthropathy (DA): 0.9%
[4]; pooled high dose (3 mg Q4W, 6 mg Q4W, 9 mg Q8W, 9 mg Q4W)
  median time for detection of DA: 364.5 days
Alkaline phosphatase; depending upon dose
  mean increase in alkaline phosphatase following initiation of therapy: 5 to 10 U/L
Alkaline phosphatase; following initiation of therapy
  time of peak of the mean increase in alkaline phosphatase: approximately 16 weeks
[5]; cut-offs 10, 15, 20 U/L at 16 weeks, 1Q4 and 1Q8
  odds ratios of DA, change in alkaline phosphatase above vs below cut-off: 6 to 25
[5]; cut-offs at 16 weeks, all 95% confidence intervals excluding 1
  odds ratios of AA, change in alkaline phosphatase above vs below cut-off: 1.5 to 2.5
